Reference: patent publication US20130267584

Key:
[1] = target: full-length TFPI (fl-TFPI, TFPI alpha) (Homo sapiens) (UniProt P10646); assay: SPR; conditions: biotinylated, nucleotide sequence identical to BAX 499; ka 6.7e7 1/Ms, kd 6.6e-4 1/s; 37 C, HBS pH 7.4, 0.1% P20, 3 mM CaCl2; aptamer immobilized
[2] = target: full-length TFPI (fl-TFPI, TFPI alpha) (Homo sapiens) (UniProt P10646); assay: inhibition; conditions: PEG

full-length TFPI (fl-TFPI, TFPI alpha) (Homo sapiens), sequence (P10646 29-304): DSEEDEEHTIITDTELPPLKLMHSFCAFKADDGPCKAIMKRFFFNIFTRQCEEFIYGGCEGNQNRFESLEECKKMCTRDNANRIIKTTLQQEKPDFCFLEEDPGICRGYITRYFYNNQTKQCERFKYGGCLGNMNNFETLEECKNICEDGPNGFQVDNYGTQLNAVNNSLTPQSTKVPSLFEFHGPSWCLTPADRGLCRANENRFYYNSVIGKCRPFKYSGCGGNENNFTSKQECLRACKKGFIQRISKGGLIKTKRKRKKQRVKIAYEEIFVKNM

## ARC28635
[1]
  Kd: 0.015 nM

## BAX 499
[2]; apparent Kd from relief of TFPI inhibition of TF/FVIIa, 12 nM TFPI, FXa independent, TFPI source not stated in this example
  Kd: 1.2 nM
[2]; aptamer giving about 50% recovery of extrinsic FXase activity with 3 nM TFPI, 75-80% recovery at saturation
  activity: 50 nM
[2]; extrinsic tenase assay at 0.25 nM TFPI, maximal reversal 58% at 1000 nM, EC50 rises with TFPI level
  EC50: 12 nM
